Results from patent publication US6420338B1, “Inhibition of the Src kinase family pathway as a method of treating HBV infection and hepatocellular carcinoma” (New York University Medical Center, priority 1997, dated 2002).

Assays:
MAP kinase (ERK2) [1] = assay: MAP kinase (ERK2) MBP kinase assay in Chang cells transfected with wtWHV; format: cell-based; conditions: Chang cells co-transfected with wtWHV; serum-starved
Procedure: FIG. 6. Woodchuck Hepatitis B Virus (WHV) HBx protein (WHx) activates a Src-Ras signaling cascade during WHV replication in cultured cells. […] Eighteen hours post-transfection, cells were serum-starved in 0.5% CS for 20 hours, MAP kinase (ERK-2) was immunoprecipitated from equal amounts of cell lysates and pellets were subjected to an in vitro MBP kinase assay.
To assay for MAP kinase activity, cells were lysed in freshly prepared lysis buffer (10 mM Tris HCl pH 7.5, 1% Triton X-100, 0.5% NP-40, 1 mM EDTA, 1 mM EGTA, 1 mM Na3VO4, 50 mM NaF, 1 mM PMSF, 40 mM PPi, 10 μg/ml aprotinin, and 10 μg/ml leupeptin) and MAP kinase was immunoprecipitated using 1 μg/ml anti-ERK2 antibodies from equal amounts of protein. After 4 washes with lysis buffer, and 2 with kinase buffer (20 mM Hepes pH 7.4, 10 mM MgCl2), the immunoprecipitates were incubated with kinase buffer including 0.5 mg/ml myelin basic protein (MBP, Sigma), 10 mM ATP and 5 μCi [γ-^32P]ATP for 30 minutes at 30° C. […]
To determine whether WHx also requires activation of Src family kinases for stimulation of Ras signaling during ongoing viral replication, Chang cells were co-transfected with plasmids synthesizing wtWHV and dominant-negative Ras (RasDN), dominant-negative Src (SrcK^−), or Csk proteins, and activation of MAP kinase was measured. […]

AP-1 [2] = assay: AP-1 dependent luciferase reporter in Chang cells expressing HBx; format: cell-based; conditions: AP-1 luciferase reporter
Procedure: (§1) FIGS. 3A and 3B. Transcriptional activation of AP-1 by HBx involves activation of Src kinases. Chang cells transfected with 8 μg plasmids pCMV-X or pCMV-Xo, with or without cotransfection of pCsk for 18 h, then serum starved for 18 h. (FIG. 3A) Cell extracts were prepared for AP-1 EMSA as described (Benn et al., 1996, supra) using a ^32P-labeled dsDNA oligonucleotide probe containing one AP-1 binding site. Reactions were carried out using 3 μg of nuclear extract, labeled oligonuleotide and 1 μg of poly(dI-dC) for 30 min at 23° C. Protein-DNA complexes were resolved by electrophoresis on 4% polyacrylamide gels and visualized by PhosphorImage analysis. As a positive control for AP-1 stimulation, cells were treated with 20 μM TPA for 30 min. (FIG. 3B) Cells were transfected as above but contained in addition 3 μg of plasmid pAP-1LUC, which encodes the luciferase reporter under the control of four AP-1 binding sites and a minimal TATA box promoter. Serum starved cells were harvested 18 h after transfection and the level of expression of the luciferase reporter assayed. Results are the average of three independent experiments.
Here it is shown that HBx activation of AP-1 DNA binding activity and AP-1 directed transcription, both involve an essential requirement for HBx activation of Src tyrosine kinases. […]

AP-1 [3] = assay: AP-1 electrophoretic mobility shift assay (EMSA) on nuclear extracts of Chang cells expressing HBx; format: cell-based; conditions: cotransfection of increasing amounts of plasmid
Procedure: as §1
Nuclear extracts were prepared according to a modified Dignam protocol (Su and Schneider, 1996). […]

MAP kinase (ERK2) [4] = assay: MAP kinase (ERK2) immunoprecipitation MBP kinase assay in Chang cells expressing HBx; format: cell-based
WHV [5] = assay: Northern blot of WHV viral mRNAs in Chang cells; format: cell-based, Woodchuck Hepatitis B Virus; conditions: Chang cells co-transfected with wtWHV
Procedure: Chang cells were washed twice with PBS and total RNA prepared according to the manufacturer's instructions (RNeasy mini kit; Qiagen). 15 μg total RNA per sample were resolved through a 1.2% formaldehyde-agarose gel (Sambrook et al., 1989, supra), transferred to Duralon UV membrane, and pre-hybridized in Quick-Hyb solution (Stratagene) at 65° C. Hybridization to 32P-labeled full length WHV probe was carried out in the same solution at 65° C., washed as described above, and autoradiographed for 1 day.
It was next addressed whether the stimulation of viral replication by WHx was a result of transcriptional transactivation of WHV genes by WHx. Chang cells were transfected with wtWHV or pCWHV plasmids. Total cellular RNA was isolated 4 days post-transfection, equal amounts of RNA were resolved by electrophoresis through a 1.2% formaldehyde-agarose gel, and the viral mRNAs were visualized by Northern blot analysis using a ^32P-labeled probe corresponding to the entire WHV genome (FIG. 8, lanes 1 and 4). Steady-state levels of the genomic viral mRNAs was enhanced ˜3-5 fold in Chang cells expressing wtWHV as compared to PCWHV. […]

CMV promoter = assay: CMV-βgal reporter control (β-galactosidase activity); format: cell-based; conditions: co-expression with CMV-βgal
Excerpt: To assess whether HBx activation of a Src signaling cascade plays an essential role in transcriptional upregulation of the viral mRNAs, Chang cells were co-transfected with wtWHV and either RasDN or Csk plasmids, and the RNA visualized by Northern analysis (FIG. 7, lanes 2 and 3). […] To ensure that the decrease in synthesis of WHV RNA by Csk was not the unforseen consequence of Csk inhibition of the CMV promoter (which drives synthesis of the WHV pregenomic RNA), control experiments assessing the effect of Csk on a CMV-βgal reporter were carried out. […] However, the WHx-induced increase in mRNA abundance (˜3-5 fold) is much less then the HBx-induced increase in viral DNA synthesis (˜20-30 fold). […] The stimulation of Src signaling cascades by HBx must therefore promote WHV replication independent of the effect of WHx on viral transcription.

WHV [6] = assay: WHV replication in Chang cells, Southern blot of intracellular core-associated viral DNA; format: cell-based, Woodchuck Hepatitis B Virus; conditions: Chang cells co-transfected with wtWHV; 3 days post-transfection
Procedure: FIG. 7. WHx requires activation of Src family kinase for WHV replication. Chang cells were co-transfected with 20 μg PCWHV, wtWHV, wtWHV and RasDN (dominant-negative) (10 μg), or wtWHV and Csk (10 μg). Three days post-transfection viral core-associated DNA was isolated, purified, and subjected to Southern blot analysis using a full-length ^32P-labeled WHV genomic probe.
Chang cells were transfected with infectious WHV clones, (2×10 cm plates) were washed twice with PBS and lysed in 500 μl lysis buffer/10 cm plate (20 mM Tris HCl pH 7.5, 1 mM EDTA, 100 mM NaCl, 0.5% NP-40) for 10-15 minutes. Lysates were centrifuged at 12,000×g for 30 minutes, MgCl2 was adjusted to 10 mM, DNAseI (Boehringer Mannheim) was added to 20 U /ml and the lysates were incubated at 37° C. for 2 hours. Following DNAse I treatment, the lysates were centrifuged for 5 min at 12,000×g, layered onto a 20% sucrose cushion (300 μl of 20% sucrose in 20 mM Tris HCl pH 8.0, 150 mM NaCl) and centrifuged for 178,000×g for 3 hours at 20° C. […]
Chang cells were co-transfected with plasmids encoding either wtWHV, pCWHV, wtWHV and RasDN, or wtWHV and Csk, intracellular core-associated viral DNA was isolated 3 days post-transfection, and purified viral DNA analyzed by Southern blot hybridization as described above (FIG. 7).

N-Myc = N-Myc immunoblot of nuclear extracts of Chang cells expressing HBx; format: cell-based; conditions: Chang cells co-expressing HBx; serum-starved 20 hours
Procedure: Cells were lysed in 1% Triton, 20 mM Hepes pH 7.4, 150 mM NaCl, 10% Glycerol, 1 mM Na3VO4, 50 mM NaF, 1 mM PMSF, 10 μg/ml aprotinin, and 10 μg/ml leupeptin. Equal amounts of protein were immunoprecipitated on ice for 2 hours and the immune complexes were collected by incubation with protein A-agarose (Santa Cruz) for 60 minutes at 4° C. Immunoprecipitates were washed three times with HNTG (20 mM Hepes pH 7.4, 150 mM NaCl, 0.1% Triton, and 10% Glycerol), resuspended in Laemmli sample buffer, heated to 95° C. for 10 minutes, resolved by electrophoresis on SDS-polyacrylamide gels, and immunoblotted to nitrocellulose using standard techniques (Harlow and Lane, 1988, Antibodies: A Laboratory Manual (Cold Spring Harbor, N.Y.; CSH Laboratory Press)). Immunoblots were visualized using the ECL chemiluminescence system (Amersham).
Nuclear extracts were prepared according to a modified Dignam protocol (Su and Schneider, 1996). Cell pellets were resuspended in 250 μl of cold Buffer A (10 mM Hepes pH 7.9, 1.5 mM MgCl2, 10 mM KCl, 0.5 mM DTT, 1 mM PMSF, 10 μg/ml leupeptin and 10 μg/ml aprotinin), swollen on ice for 10 min, vortexed for 10 sec, and centrifuged for 10 sec at 12,000×g. […]

B1: Csk: Csk (carboxyl-terminal Src kinase), a specific physiologic inhibitor of Src kinase, expressed from a CMV promoter plasmid (protein, UniProt P41240 2-450, looked up)
Tyrosine-protein kinase CSK: SAIQAAWPSGTECIAKYNFHGTAEQDLPFCKGDVLTIVAVTKDPNWYKAKNKVGREGIIPANYVQKREGVKAGTKLSLMPWFHGKITREQAERLLYPPETGLFLVRESTNYPGDYTLCVSCDGKVEHYRIMYHASKLSIDEEVYFENLMQLVEHYTSDADGLCTRLIKPKVMEGTVAAQDEFYRSGWALNMKELKLLQTIGKGEFGDVMLGDYRGNKVAVKCIKNDATAQAFLAEASVMTQLRHSNLVQLLGVIVEEKGGLYIVTEYMAKGSLVDYLRSRGRSVLGGDCLLKFSLDVCEAMEYLEGNNFVHRDLAARNVLVSEDNVAKVSDFGLTKEASSTQDTGKLPVKWTAPEALREKKFSTKSDVWSFGILLWEIYSFGRVPYPRIPLKDVVPRVEKGYKMDAPDGCPPAVYEVMKNCWHLDAAMRPSFLQLREQLEHIKTHELHL
MAP kinase (ERK2) [1]
  effect on downstream activation of MAP kinase by wtWHV: efficiently inhibited
AP-1 [2]
  effect on HBx induced activation of AP-1 dependent transcription: fully blocked
AP-1 [3]
  effect on HBx induction of AP-1 DNA binding complexes: suppressed
MAP kinase (ERK2) [4]; Chang cells co-expressing HBx, serum-starved in 0.5% CS for 24 hours
  effect on HBx activation of ERK2: impaired
MAP kinase (ERK2) [4]; Chang cells co-transfected with HBx, serum-starved 20 hours, 2% serum restored for 2 hours
  effect on HBx-induced activation of MAP kinase (MBP phosphorylation): abolished
MAP kinase (ERK2) [4]; Chang cells, overexpression, insulin stimulation
  effect on activation of MAP kinase by insulin: only slightly impaired
WHV [5]
  reduction of WHV RNA level: 3-5 fold
CMV promoter
  effect on expression of βgal protein from CMV-βgal (β-galactosidase activity): did not significantly alter
WHV [6]
  effect on WHV replication (viral DNA replicative intermediates): completely abolished
N-Myc
  effect on increase in N-Myc protein by HBx: impaired
